# In patent CN108948202A (BOAOXIN BIOTECHNOLOGY NANJING CO LTD, dated 2018):
# Tests used:
# 生物素标记人PD1-Fc蛋白 = target: T1, 生物素标记人PD1-Fc蛋白 (human, UniProt Q15116 25-167, limits assumed, biotin-labelled (site not stated)); experiment: capture ELISA: antibody captured by anti-mouse IgG Fc, 60 nM biotinylated human PD1-Fc
# T1 construct: also called PD1Fc biotin; 人PD1抗原; not shown: Fc part
# [1] = target: T2, 重组人PD1带his标签的蛋白 (Sino biological inc., cat#10377-H08H) (human, UniProt Q15116 25-167); experiment: ELISA, hybridoma supernatant on coated human PD1-his
# T2 construct: Detection antigen for serum titres and hybridoma screening; also called 人PD1-his蛋白抗原; PD1-his; not shown: his tag
# T2 sequence (Q15116 25-167 limits assumed): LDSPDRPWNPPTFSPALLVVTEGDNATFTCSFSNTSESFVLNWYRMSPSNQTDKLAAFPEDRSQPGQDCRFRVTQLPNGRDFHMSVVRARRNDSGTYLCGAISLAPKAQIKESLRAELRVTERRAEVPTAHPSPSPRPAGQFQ
# T1 sequence (Q15116 25-167 limits assumed): as above
binder,measurement,setting,value
"D2G3 抗人PD1小鼠单克隆抗体 (antibody, V domains shown, Tested as a mouse monoclonal antibody from a hybridoma (supernatant or small-scale purified); also called D2G3抗体; 本发明的抗人PD1单克隆抗体) VH: QEQLKQSGPGLVAPSQTLSITCTVSGFSLESYGVDWVRQSPGKGLEWLGVIWGSGSTSYNSGLKSRLSISKDNSKKQVFLEMKSLQTDDTAMYYCAIDGGFASWGQGTLVTVSA VL: DIVMTQAAPSVPVTPGESVSISCRSSKSLLHSNGNTYLYWFLQRPGQSPQRLIYYMSNLASGVPDRFSGRGSGTDFTLRISRVEAEDVGVYYCMQSLEYPYTFGGGTKLEIK",binding result,生物素标记人PD1-Fc蛋白,binds
same,binding result,[1],binds
